T1: NCK1 SH3-2 domain (human)
T1 chain: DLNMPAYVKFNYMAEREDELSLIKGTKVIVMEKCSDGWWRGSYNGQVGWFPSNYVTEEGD


Molecular target: T1, NCK1 SH3-2 domain
Assay: ITC
Details: not given

| Molecule | Kd |
| --- | --- |
| Ac-LPRPPKR-NH2 [MH099] | < 600 µM |
| Ac-FPRPPKR-NH2 [MH073] | < 300 µM |
| Ac-SPRPPKR-NH2 [MH074] | < 300 µM |
| Ac-GPRPPKR-NH2 [MH091] | < 300 µM |
| Ac-MPRPPKR-NH2 [MH109] | < 300 µM |
| Ac-EPRPPKR-NH2 [MH071] | < 300 µM |
| Ac-KPRPPKR-NH2 [MH103] | < 300 µM |
| Ac-IPRPPKR-NH2 [MH095] | < 300 µM |
| Ac-RPRPPKR-NH2 [MH068] | < 300 µM |
| Ac-WPRPPKR-NH2 [MH117] | < 300 µM |
| Ac-TPRPPKR-NH2 [MH113] | < 300 µM |
| Ac-YPRPPKR-NH2 [MH119] | < 300 µM |
| Ac-HPRPPKR-NH2 [MH072] | < 300 µM |
| Ac-NPRPPKR-NH2 [MH069] | < 300 µM |
| Ac-VPRPPKR-NH2 [MH123] | < 300 µM |

Now from value to molecule:

| Kd | Molecule |
| --- | --- |
| < 300 µM | Ac-DPRPPKR-NH2 [MH083] |
| < 300 µM | Ac-QPRPPKR-NH2 [MH086] |
| < 300 µM | Ac-CPRPPKR-NH2 [MH070] |

Molecular target: T1, NCK1 SH3-2 domain
Assay: ITC
Details: not given
Remark: another data set of the same source

| Molecule | Kd |
| --- | --- |
| Ac-PPRPPMR-NH2 [MH112] | < 300 µM |
| Ac-PPRPPWR-NH2 [MH050] | < 300 µM |
| Ac-PPRPPHR-NH2 [MH049] | < 300 µM |
| Ac-PPRPPFR-NH2 [MH105] | < 600 µM |
| Ac-PPRPPDR-NH2 [MH085] | < 600 µM |
| Ac-PPRPPTR-NH2 [MH116] | < 300 µM |
| Ac-PPRPPVR-NH2 [MH126] | < 300 µM |
| Ac-PPRPPGR-NH2 [MH094] | > 600 µM |
| Ac-PPRPPSR-NH2 [MH052] | < 300 µM |

Continued, values first:

| Kd | Molecule |
| --- | --- |
| < 300 µM | Ac-PPRPPCR-NH2 [MH054] |
| < 300 µM | Ac-PPRPPQR-NH2 [MH088] |

Molecular target: T1, NCK1 SH3-2 domain
Assay: ITC
Details: not given
Remark: another data set of the same source

| Molecule | Kd |
| --- | --- |
| Ac-PEHIPPPPRPPKR-NH2 [MH029] | < 300 µM |
| Ac-PPPRPPKR-NH2 [MH024] | < 300 µM |
| PPK [MH015] | > 1000 µM |
| RPP [MH020] | > 1000 µM |
| Ac-RPPK-NH2 [MH016] | > 1000 µM |
| Ac-PRPP-NH2 [MH021] | > 1000 µM |
| Ac-HIPPPPRPPKR-NH2 [MH027] | < 300 µM |
| Ac-PPEHIPPPPRPPKR-NH2 [MH030] | < 300 µM |

Second part, the molecule after the results:

| Kd | Molecule |
| --- | --- |
| < 300 µM | Ac-PPPPRPPKR-NH2 [MH025] |
| > 1000 µM | Ac-RPPKR-NH2 [MH018] |
| > 1000 µM | Ac-PPKR-NH2 [MH017] |
| > 1000 µM | PKR [MH014] |
| < 300 µM | Ac-EHIPPPPRPPKR-NH2 [MH028] |
| > 1000 µM | PRP [MH019] |
| < 300 µM | Ac-IPPPPRPPKR-NH2 [MH026] |
| > 1000 µM | Ac-PRPPK-NH2 [MH022] |

Molecular target: T2, SH3-2 domain of NCK1 (Homo sapiens, UniProt P16333)
T2 construct: To amplify the NCK1 SH3-2 domain, the primers; 10xHis tag with TEV site (vector pSF-OXB20-NH2-10HIS) (N, cleaved yes); made in house; host or cells: E. coli C43(DE3)
Assay: Isothermal titration calorimetry (ITC) binding to NCK1 SH3-2 domain
Details: Alanine scanning of the MD20 6-mer peptide; ITC, 25 °C, pH 8.0
Excerpt: Human PTP1B cDNA (NM_002827) and human NCK1 cDNA (NM 006153) were obtained (Origene, MD, USA). PTP1B Primers were designed to amplify the ORFs with added homology to the cut vector (EcoRI-digested pSF-OXB20-NH2-10HIS) in the forward primer sequence. To amplify full-length PTP1B, the primers ptp1b_FL_fwd ([…]) (SEQ ID NO: 159) and ptp1b_FL_rev ([…]) (SEQ ID NO: 160) were used. To amplify truncations of PTP1B, the following primer pairs were used: ptp1b_FL-Fwd and one of Ptplb_323stop_rev (gtgcaggaggagttcgaatt[…]) (SEQ ID NO: 161), ptp1b_344stop_rev ([…]) (SEQ ID NO: 162) or ptp1b_278stop_rev([…]) (SEQ ID NO: 163). To amplify the NCK1 SH3-2 domain, the primers ncklsh32_fwd ([…]) (SEQ ID NO: 164) and ncklsh32_rev ([…]) (SEQ ID NO: 165) were used. The amplified fragments were purified using a DNA clean-up kit according to manufacturer's instructions (QIAquick PCR purification kit, Qiagen).
To produce and purify fusion proteins, a culture was inoculated with 1% of overnight-cultured inoculum. Protein expression was carried out under the conditions described above, scaled up as necessary. Cells expressing the recombinant proteins were harvested in 50 mL tubes by centrifugation and stored at −80 °C. Cells containing the expressed gene product were thawed over ice and resuspended in Extraction buffer (10 mM Tris, pH 7.4 or 10 mM Sodium Phosphate, pH 8.0; 300 mM NaCl, 1 mM DTT or TCEP; 0-10% glycerol and 1 μg lysozyme) and sonicated over ice (4 °C) for 3 min total using pulses of 5 s with 15 s intervals, using a wide probe at 15 amplitude microns (Soniprep 150, MSE). Insoluble material was removed from the lysate by centrifugation at 20K rpm for 20-60 min at 4 °C. Supernatant was filtered through a 0.22 μm PVDF filter membrane and applied to 1-2 5 mL HisTrap FF Crude (Cytiva) prepacked Ni columns and connected to an AKTA explorer. After thorough washing with binding buffer (10 mM Tris, pH 7.4 or 10 mM Sodium Phosphate, pH 8.0; 300 mM NaCl; 1 mM DTT or TCEP and 25 mM Imidazole), protein was eluted using elution buffer (10 mM Tris, pH 7.4 or 10 mM Sodium Phosphate, pH 8.0; 150-300 mM NaCl; 1 mM DTT or TCEP and 250 mM Imidazole). Fractions containing protein of interest were confirmed by SDS PAGE. Protein was diluted with GF buffer (10 mM Tris, pH 7.4 or 10 mM Sodium Phosphate, pH 8.0; 150-300 mM NaCl) and subjected to TEV protease treatment overnight at 4-10 °C. Following proteolytic digestion, HIS-tag and TEV protease were removed by filtration through a clean 5 mL HisTrap FF Crude (Cytiva) prepacked Ni column. Protein was concentrated on a PES ultrafiltration device by centrifugation at 4000 rpm at 4 °C, and protein was polished via a HiPrep S-100 26/60 (Cytiva) using GF buffer (as described above). Purified proteins were concentrated using ultrafiltration, and protein concentration was determined using ultraviolet-visible spectroscopy. The integrity and identity of all proteins were verified by mass spectrographic analysis.
Isothermal titration calorimetry (ITC) was used to determine binding affinities for peptides against the SH3-2 domain of NCK1. Experiments were conducted at 25 °C using either a MicroCal iTC200 or MicroCal PEAQ-ITC calorimeter. The buffer used for all ITC experiments was 10 mM sodium [COMPOUND LEFT OUT] mM sodium chloride (pH=8.0). A series of peptides (concentration 3-7.5 mM) were titrated in to NCK1 SH3-2 domain (concentration 0.125-0.3 mM) using the following conditions: one injection of 0.2 μL followed by 19 injections of 2 μL, 120-150 seconds spacing between injections, at 25 °C. The data were fit using analysis software provided by the manufacturer and affinity values were calculated. The best fitting occurred when the number of sites was between 0.8 and 1.2. The experiments were repeated twice for a total of three times, and the average binding affinity for each peptide was generated. […]

| Kd | Molecule |
| --- | --- |
| > 1000 µM | Ac-PRPPKA-NH2 [MH013, Ac-PRPPKA-NH2] |

Same assay, conditions: ITC

| binding to NCK1 SH3-2 domain (in words) | Molecule |
| --- | --- |
| abolished binding | Ac-PRPPKA-NH2 [MH013, Ac-PRPPKA-NH2] |

Same assay, conditions: N- or C-terminal extensions; ITC, 25 °C, pH 8.0; 30-mers tested one to three times

| Kd | Molecule |
| --- | --- |
| ≤ 300 µM | Ac-PPRPPKRIL-NH2 [MH064] |

Same assay, conditions: substitutions at position 1 of MD18; ITC, 25 °C, pH 8.0

| Kd | Molecule |
| --- | --- |
| ≤ 300 µM | Ac-QPRPPKR-NH2 [MH086, Ac-QPRPPKR-NH2] |

Same assay, conditions: substitutions at position 4 of MD18 in a 7-mer; ITC, 25 °C, pH 8.0

| Kd | Molecule |
| --- | --- |
| 300 to 600 µM | Ac-PPRTPKR-NH2 [MH115, Ac-PPRTPKR-NH2] |

Same assay, conditions: substitutions at position 6 of MD18; ITC, 25 °C, pH 8.0

| Kd | Molecule |
| --- | --- |
| ≤ 300 µM | Ac-PPRPPVR-NH2 [MH126, Ac-PPRPPVR-NH2] |

From patent US20260365696A1, “INHIBITORS OF PTP1B / NCK1 INTERACTION AND METHODS OF MAKING AND USING SAME” (Radella Pharmaceuticals LLC, priority 2023, published 2026)
